Test results as given in patent US20030215899A1, “Reversible oxidation of protein tyrosine phosphatases” (CEPTYR, Inc., priority 2002, published 2003).

Target: PDGFR (ligand-activated, tyrosine phosphorylated) (rat (endogenous protein of Rat-1 fibroblasts)) (UniProt Q05030)
Experiment: preliminary studies in ligand-stimulated Rat-1 cells; method not stated

Sequence of PDGFR (ligand-activated, tyrosine phosphorylated) (rat (endogenous protein of Rat-1 fibroblasts)) (Q05030 32-1097 limits assumed): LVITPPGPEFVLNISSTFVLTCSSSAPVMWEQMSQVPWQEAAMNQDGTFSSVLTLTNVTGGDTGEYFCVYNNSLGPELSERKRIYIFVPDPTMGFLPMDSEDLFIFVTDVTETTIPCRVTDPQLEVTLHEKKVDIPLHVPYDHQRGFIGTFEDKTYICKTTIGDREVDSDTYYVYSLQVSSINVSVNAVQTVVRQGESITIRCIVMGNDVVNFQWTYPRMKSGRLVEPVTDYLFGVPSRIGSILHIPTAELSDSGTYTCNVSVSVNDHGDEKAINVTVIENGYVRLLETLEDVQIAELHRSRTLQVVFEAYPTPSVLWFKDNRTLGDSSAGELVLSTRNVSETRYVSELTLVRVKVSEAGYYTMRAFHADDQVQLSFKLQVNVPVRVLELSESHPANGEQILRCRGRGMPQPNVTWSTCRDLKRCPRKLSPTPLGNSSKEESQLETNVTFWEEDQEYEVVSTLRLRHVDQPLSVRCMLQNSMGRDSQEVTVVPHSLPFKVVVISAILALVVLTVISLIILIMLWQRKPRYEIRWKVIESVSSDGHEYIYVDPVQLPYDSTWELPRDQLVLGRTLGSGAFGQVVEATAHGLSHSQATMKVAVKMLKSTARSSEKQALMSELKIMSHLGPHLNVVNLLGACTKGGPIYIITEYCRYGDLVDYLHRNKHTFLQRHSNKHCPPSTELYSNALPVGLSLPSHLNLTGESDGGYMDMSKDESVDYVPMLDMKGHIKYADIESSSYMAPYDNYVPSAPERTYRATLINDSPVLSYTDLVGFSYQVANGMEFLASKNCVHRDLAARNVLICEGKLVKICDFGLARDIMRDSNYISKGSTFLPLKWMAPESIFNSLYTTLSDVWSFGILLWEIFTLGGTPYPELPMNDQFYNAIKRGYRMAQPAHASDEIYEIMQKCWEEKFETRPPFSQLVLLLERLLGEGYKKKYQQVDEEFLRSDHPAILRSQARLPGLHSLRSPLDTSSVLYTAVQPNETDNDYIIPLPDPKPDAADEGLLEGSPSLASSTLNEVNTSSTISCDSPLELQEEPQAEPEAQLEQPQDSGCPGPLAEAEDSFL

percent of the total population of SHP-2 recruited into a complex: 10%
Substance: SHP-2 (from UniProt P41499 2-593) (enzyme)
